Results on eight sequences are retold here after the supplement of paper PMC5998384.

Data set [1] concerns HeLa Kyoto. In words: solubility in G1/S (NP-40 vs SDS abundance) (log2 ratio); higher = more soluble. Particulars: cell cycle stage: G1/S.
Data set [2] relates to HeLa Kyoto. Description: melting temperature (median over replicates), in situ; higher = more thermally stable.
For data set [3], the system named is HeLa Kyoto. Description: solubility change mitosis vs G1/S (difference of NP-40 vs SDS log2 ratios) (log2 ratio difference); higher = more soluble in mitosis.
For data set [4], the system named is HeLa Kyoto. Description: thermal stability score vs G1/S (z-score of summed log2 fold changes over temperatures); higher = more thermally stable than in G1/S.
Where [5] appears, read: cell cycle stage: early G1 (4.5 h after nocodazole release).
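Wherever melting temperature (median over replicates), in situ is given: HeLa Kyoto cells synchronized by double thymidine or nocodazole block, proteins quantified by TMT10plex mass spectrometry, three independent biological replicates.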
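Wherever solubility change mitosis vs G1/S (difference of NP-40 vs SDS log2 ratios) is given: synchronized HeLa Kyoto cells (double thymidine block for G1/S, nocodazole release for mitosis), protein amounts in NP-40 versus SDS lysates quantified by mass spectrometry, three biological replicates.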
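Wherever solubility in G1/S (NP-40 vs SDS abundance) is given: HeLa Kyoto cells arrested at G1/S by double thymidine block, proteins quantified by TMT10plex mass spectrometry in mild NP-40 versus SDS extracts, three biological replicates.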
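Wherever thermal stability score vs G1/S (z-score of summed log2 fold changes over temperatures) is given: synchronized HeLa Kyoto cells, proteins quantified by TMT10plex mass spectrometry, three biological replicates, mitosis taken 0.5 h after nocodazole release, G1/S directly after double thymidine block.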

As to “MDAPRASAAKPPTGRKMKARAPPPPGKAATLHVHSDQKPPHDGALGSQQNLVRMKEALRASTMDVTVVLPSGLEKRSVLNGSHAMMDLLVELCLQNHLNPSHHALEIRSSETQQPLSFKPNTLIGTLNVHTVFLKEKVPEEKVKPGPPKVPEKSVRLVVNYLRTQKAVVRVSPEVPLQNILPVICAKCEVSPEHVVLLRDNIAGEELELSKSLNELGIKELYAWDNRRETFRKSSLGNDETDKEKKKFLGFFKVNKRSNSKGCLTTPNSPSMHSRSLTLGPSLSLGSISGVSVKSEMKKRRAPPPPGSGPPVQDKASEKVSLGSQIDLQKKKRRAPAPPPPQPPPPSPLIPNRTEDKEENRKSTMVSLPLGSGSHCSPDGAPQVLSEAEETVSVGSCFASEDTTEDSGVMSSPSDIVSLDSQQDSMKYKDKWATDQEDCSDQDLAGTPDLGPQKSPLWEKNGSENSHLRTEKAVTASNDEEDLLIAGEFRKTLAELDEDLEEMEDSYETDTSSLTSSIHGASNHCPQDAMIPHGDTDAIPVTFIGEVSDDPVDSGLFSNRNNNAGSFDSEGVASRRDSLAPLQAEHSQPHEKAREEVPALHPASHDVGKGIRVALSNISKDGNLMETAPRVTSFASNLHTDNLNAKVKDKVYGCADGERTQATERVNSQPVNEKDSNDKNAALAPTSWHQRGQNPGKSYRLKHGLTTYKIIPPKSEMRCYDRDVSLSTGAIKIDELGNLVSPHATGIRIISLSSSVPEAESQPIGKVREFWRCNSVEKHLGRPSESSARGPPSTPVPTQTQNPESRLQADPKPISPQQKSAHHEGRNPLGEGRNQPPTMGMGHVRVPAAHTTEVTFLKPQRRTSSQYVASAIAKRIGAPKVHADVVRPHGYAEKGYAGKAPVLAAPPVTVKDDRTSSPHSETQGWKDGAQWPCVTPPNNHGEDLAVGAPPRGEVIGPHRKLSTQDRPAAIHRSSCFSLVQSSQRDRVSVGQSCGFSGKQSTSSQEASSASEPRRAPDGTDPPPPHTSDTQACSRELVNGSVRAPGHGEPSHPPGGSGTESHILLEREEKPSVFSTDGNETDSIWPPSIFGPKKKFKPVVQRPVPKDTSLHSALMEAIHSAGGKDRLRKTAEHTGEGRPAKLSYTEAEGERSALLAAIRGHSGTCSLRKVASSASEELQSFRDAALSAQGSESPLLEDLGLLSPPAIPPPPPPPSQALSAPRTASRFSTGTLSNTADARQALMDAIRSGTGAARLRKVPLLV [COBL]”, in data set [1], the “solubility in G1/S (log2)” value is -0.423. The melting temperature in data set [2] (cell cycle stage: G1/S) came to 49.1 °C; in data set [2] (cell cycle stage: mitosis) it was 49.8 °C. In addition, the “solubility change mitosis (log2)” value in data set [3] came to 0.177. The results for the thermal stability score in data set [4] (setting [5]) and in data set [4] (cell cycle stage: mitosis) were 1.3 and 1.18, respectively.
As to “MDDDDFGGFEAAETFDGGSGETQTTSPAIPWAAFPAVSGVHLSPSSPEIVLDRDHSSSIGCLSSDAIISSPENTHAANSIVSQTIPKAQIQQSTHTHLDISLFPLGLTDEKSNGTIALVDDSEDPGANVSNIQLQQKISSLEIKLKVSEEEKQRIKQDVESLMEKHNVLEKGFLKEKEQEAISFQDRYKELQEKHKQELEDMRKAGHEALSIIVDEYKALLQSSVKQQVEAIEKQYISAIEKQAHKCEELLNAQHQRLLEMLDTEKELLKEKIKEALIQQSQEQKEILEKCLEEERQRNKEALVSAAKLEKEAVKDAVLKVVEEERKNLEKAHAEERELWKTEHAKDQEKVSQEIQKAIQEQRKISQETVKAAIIEEQKRSEKAVEEAVKRTRDELIEYIKEQKRLDQVIRQRSLSSLELFLSCAQKQLSALIATEPVDIE [CCDC91]”, the “solubility in G1/S (log2)” value in data set [1] came to 0.348. For the same sequence, the melting temperature in data set [2] (cell cycle stage: G1/S) was determined as 53 °C; in data set [2] (cell cycle stage: mitosis) it was 52.1 °C. Also, the “solubility change mitosis (log2)” value in data set [3] is -0.0653. Further, the thermal stability score in data set [4] (setting [5]) is -0.397; in data set [4] (cell cycle stage: mitosis) it was -0.35.
“MDDKELIEYFKSQMKEDPDMASAVAAIRTLLEFLKRDKGETIQGLRANLTSAIETLCGVDSSVAVSSGGELFLRFISLASLEYSDYSKCKKIMIERGELFLRRISLSRNKIADLCHTFIKDGATILTHAYSRVVLRVLEAAVAAKKRFSVYVTESQPDLSGKKMAKALCHLNVPVTVVLDAAVGYIMEKADLVIVGAEGVVENGGIINKIGTNQMAVCAKAQNKPFYVVAESFKFVRLFPLNQQDVPDKFKYKADTLKVAQTGQDLKEEHPWVDYTAPSLITLLFTDLGVLTPSAVSDELIKLYL [EIF2B1]”: the “solubility in G1/S (log2)” value in data set [1] turned out to be 0.101. The melting temperature is 57.1 °C in data set [2] (cell cycle stage: G1/S) and 55.4 °C in data set [2] (cell cycle stage: mitosis). The “solubility change mitosis (log2)” value in data set [3] is -0.134. The thermal stability score was -1.83 in data set [4] (setting [5]) and -1.69 in data set [4] (cell cycle stage: mitosis).
With “MDDLCEANGTFAISLFKILGEEDNSRNVFFSPMSISSALAMVFMGAKGSTAAQMSQALCLYKDGDIHRGFQSLLSEVNRTGTQYLLRTANRLFGEKTCDFLPDFKEYCQKFYQAELEELSFAEDTEECRKHINDWVAEKTEGKISEVLDAGTVDPLTKLVLVNAIYFKGKWNEQFDRKYTRGMLFKTNEEKKTVQMMFKEAKFKMGYADEVHTQVLELPYVEEELSMVILLPDDNTDLAVVEKALTYEKFKAWTNSEKLTKSKVQVFLPRLKLEESYDLEPFLRRLGMIDAFDEAKADFSGMSTEKNVPLSKVAHKCFVEVNEEGTEAAAATAVVRNSRCSRMEPRFCADHPFLFFIRHHKTNCILFCGRFSSP [SERPINB8]”, the “solubility in G1/S (log2)” value in data set [1] stood at 0.146. The results for the melting temperature in data set [2] (cell cycle stage: G1/S) and in data set [2] (cell cycle stage: mitosis) were 54.6 °C and 54.2 °C, respectively. Besides, the “solubility change mitosis (log2)” value in data set [3] was -0.115. Besides, the thermal stability score in data set [4] (setting [5]) is -0.0278; in data set [4] (cell cycle stage: mitosis) it was -0.739.
In the case of “MDDPDCDSTWEEDEEDAEDAEDEDCEDGEAAGARDADAGDEDEESEEPRAARPSSFQSRMTGSRNWRATRDMCRYRHNYPDLVERDCNGDTPNLSFYRNEIRFLPNGCFIEDILQNWTDNYDLLEDNHSYIQWLFPLREPGVNWHAKPLTLREVEVFKSSQEIQERLVRAYELMLGFYGIRLEDRGTGTVGRAQNYQKRFQNLNWRSHNNLRITRILKSLGELGLEHFQAPLVRFFLEETLVRRELPGVRQSALDYFMFAVRCRHQRRQLVHFAWEHFRPRCKFVWGPQDKLRRFKPSSLPHPLEGSRKVEEEGSPGDPDHEASTQGRTCGPEHSKGGGRVDEGPQPRSVEPQDAGPLERSQGDEAGGHGEDRPEPLSPKESKKRKLELSRREQPPTEPGPQSASEVEKIALNLEGCALSQGSLRTGTQEVGGQDPGEAVQPCRQPLGARVADKVRKRRKVDEGAGDSAAVASGGAQTLALAGSPAPSGHPKAGHSENGVEEDTEGRTGPKEGTPGSPSETPGPSPAGPAGDEPAESPSETPGPRPAGPAGDEPAESPSETPGPRPAGPAGDEPAESPSETPGPSPAGPTRDEPAESPSETPGPRPAGPAGDEPAESPSETPGPRPAGPAGDEPAESPSETPGPSPAGPTRDEPAKAGEAAELQDAEVESSAKSGKP [OGFR]”, the “solubility in G1/S (log2)” value in data set [1] turned out to be 0.423. In addition, the melting temperature in data set [2] (cell cycle stage: G1/S) is 48.1 °C; in data set [2] (cell cycle stage: mitosis), 49.6 °C. Further, in data set [3], the “solubility change mitosis (log2)” value was -0.0617. In addition, the thermal stability score in data set [4] (setting [5]) worked out at 1.46; in data set [4] (cell cycle stage: mitosis), 3.46.
For the sequence “MDDQGCPRCKTTKYRNPSLKLMVNVCGHTLCESCVDLLFVRGAGNCPECGTPLRKSNFRVQLFEDPTVDKEVEIRKKVLKIYNKREEDFPSLREYNDFLEEVEEIVFNLTNNVDLDNTKKKMEIYQKENKDVIQKNKLKLTREQEELEEALEVERQENEQRRLFIQKEEQLQQILKRKNKQAFLDELESSDLPVALLLAQHKDRSTQLEMQLEKPKPVKPVTFSTGIKMGQHISLAPIHKLEEALYEYQPLQIETYGPHVPELEMLGRLGYLNHVRAASPQDLAGGYTSSLACHRALQDAFSGLFWQPS [MNAT1]”, the “solubility in G1/S (log2)” value in data set [1] is -0.181. Moreover, the melting temperature in data set [2] (cell cycle stage: G1/S) came to 52.1 °C; in data set [2] (cell cycle stage: mitosis), 53 °C. Also, the “solubility change mitosis (log2)” value in data set [3] was determined as 0.565. Further, the results for the thermal stability score in data set [4] (setting [5]) and in data set [4] (cell cycle stage: mitosis) were -0.397 and -0.426, respectively.
For the sequence “MDDQQALNSIMQDLAVLHKASRPALSLQETRKAKSSSPKKQNDVRVKFEHRGEKRILQFPRPVKLEDLRSKAKIAFGQSMDLHYTNNELVIPLTTQDDLDKAVELLDRSIHMKSLKILLVINGSTQATNLEPLPSLEDLDNTVFGAERKKRLSIIGPTSRDRSSPPPGYIPDELHQVARNGSFTSINSEGEFIPESMDQMLDPLSLSSPENSGSGSCPSLDSPLDGESYPKSRMPRAQSYPDNHQEFSDYDNPIFEKFGKGGTYPRRYHVSYHHQEYNDGRKTFPRARRTQGTSLRSPVSFSPTDHSLSTSSGSSIFTPEYDDSRIRRRGSDIDNPTLTVMDISPPSRSPRAPTNWRLGKLLGQGAFGRVYLCYDVDTGRELAVKQVQFDPDSPETSKEVNALECEIQLLKNLLHERIVQYYGCLRDPQEKTLSIFMEYMPGGSIKDQLKAYGALTENVTRKYTRQILEGVHYLHSNMIVHRDIKGANILRDSTGNVKLGDFGASKRLQTICLSGTGMKSVTGTPYWMSPEVISGEGYGRKADIWSVACTVVEMLTEKPPWAEFEAMAAIFKIATQPTNPKLPPHVSDYTRDFLKRIFVEAKLRPSADELLRHMFVHYH [MAP3K2]”, in data set [1], the “solubility in G1/S (log2)” value is 0.0839. Further, the melting temperature in data set [2] (cell cycle stage: G1/S) is 51.3 °C; in data set [2] (cell cycle stage: mitosis), 51.4 °C. For the same sequence, the “solubility change mitosis (log2)” value in data set [3] was -0.043. Further, the thermal stability score in data set [4] (setting [5]) was determined as 0.798; in data set [4] (cell cycle stage: mitosis), 1.24.
Consider “MDEEYDVIVLGTGLTECILSGIMSVNGKKVLHMDRNPYYGGESSSITPLEELYKRFQLLEGPPESMGRGRDWNVDLIPKFLMANGQLVKMLLYTEVTRYLDFKVVEGSFVYKGGKIYKVPSTETEALASNLMGMFEKRRFRKFLVFVANFDENDPKTFEGVDPQTTSMRDVYRKFDLGQDVIDFTGHALALYRTDDYLDQPCLETVNRIKLYSESLARYGKSPYLYPLYGLGELPQGFARLSAIYGGTYMLNKPVDDIIMENGKVVGVKSEGEVARCKQLICDPSYIPDRVRKAGQVIRIICILSHPIKNTNDANSCQIIIPQNQVNRKSDIYVCMISYAHNVAAQGKYIAIASTTVETTDPEKEVEPALELLEPIDQKFVAISDLYEPIDDGCESQVFCSCSYDATTHFETTCNDIKDIYKRMAGTAFDFENMKRKQNDVFGEAEQ [GDI1]”, for which the “solubility in G1/S (log2)” value in data set [1] was 0.0264. The figures for the melting temperature in data set [2] (cell cycle stage: G1/S) and in data set [2] (cell cycle stage: mitosis) were 54.2 °C and 53.8 °C, respectively. Moreover, the “solubility change mitosis (log2)” value in data set [3] is -0.152. The values for the thermal stability score in data set [4] (setting [5]) and in data set [4] (cell cycle stage: mitosis) were -0.651 and -1.41, respectively.
